Test results taken from the nanobody polyreactivity screen of Harvey et al. (2022).

Assay: yeast display, Sf9 membrane polyspecificity reagent, FACS + sequencing; frameworks hold sequencing errors
Outline: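 Genes from sorted yeast were amplified by colony PCR, read by MiSeq 2 × 250 sequencing and filtered on CDR length. These cells carried a synthetic nanobody library in Saccharomyces cerevisiae BJ5465 and were sorted by FACS into low and high (top ~1%) gates on anti-HA and streptavidin fluorescence. Polyreactivity is labelled according to the gate of origin.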

Sequence | polyreactivity (PSR sort gate)
HVQLQESGGGLVQAGGSLRLSCAASGNISYSRNMGWYRQAPGKERELVAAIDRGAITYYADSVKGRFTISRDNAKNTVYLQRYSLKPEDTAVYYCAAEYHDRWDHRYWGQGTQVTVSS | high polyreactivity
HVQLQESGGGLVQAGGSLRLSCAASGSIFQATYMGWYRQAPGKEREFVASITYGSITNYADSVKGRFTIGRDNAKETLYLQMNSLKPEDTAVYYCAVDRHYIPAFHYWGQGTQVTVSS | low polyreactivity
HVQLVDSGGGIVQAGGSLRLSCAASGSTFYGNAMGWYRQAPGKEMEFVAAISRGGGSTYYADSVKGRFTISRDNAKNTVYVQMNLLKTEDTADFYCAATRYLHPWYYQYYYCGQGTQVTVSS | low polyreactivity
HVQLVDSGGGLVQAGGSLRLSCAASGRTFSHNAMGWYRQAPGKDRELVATITYGAGRTSYADSVKGRFTISRDNAKNTLYLQMNSLKPEDTAVYYCNADYFTYRGGEYRRYEYWGQGTQVTVST | high polyreactivity
HVQLVESAGGLVQAGGSLRLSCAASGSTIYGYAMGLYRQAPGKERELVAAITGSGGSTYYADSVKGRFTISRDNAKNTVYLQMNSLKPEDTAVYYCNAVRRYGLEYNYWGQGTQVTVSS | high polyreactivity
HVQLVESGGGLVQAGGCLRLSCAASGRICIFYAMGWYRQAPGKERELVAAISSGPSTTYADSVKGRFTISRDNAKNTVYLQMNSLNPEDTAVYSCARRDGTTQALFGYDYWGQGTQVTVSS | low polyreactivity
HVQLVESGGGLVQAGGSLPLSCAASGLTFYYNAMGWYRQAPGNERELVAAISFSGGRTYYADSVKGRFTISRDNAKNTVYLQMNSLKPEDTAVYYCNTVGKQHLDYDYWGQGTQVTVSS | high polyreactivity
HVQLVESGGGLVQAGGSLRLICAASGRSFSPYAMGWYRLAPGKERELVAAITNGDSTNYADSVKGRFTISRDNAKNTVYLLMNSLKPEDTAVYYCNAAAEISSFDYDYWGQGTQVTVSS | low polyreactivity
HVQLVESGGGLVQAGGSLRLSCAASGFIFVSYAMGWYRQAPGKERELVAAITWSTTSTYYADSVKGRFTISRDNAKNTVYLQMNSLKPEDTAVYYCAKYNFQYKHDYWGQGTQVTVSS | low polyreactivity
HVQLVESGGGLVQAGGSLRLSCAASGFIFWRYAMGWYRQAPGKERELVAAISVSGTRTYYADSVKGRFTISRDNAKNTVYLQMNSLKPEDTAVYYCAADRYYGEDYWGQGTQVTVSS | high polyreactivity
HVQLVESGGGLVQAGGSLRLSCAASGFIGIYAMGWYRQAPGKERELVAAITTSGGRTYYADSVKGRFTISRDNAKNTVYLQMNSLKPEDTAVYYCAAPWRLFSLYDYWGQGTQVTVSS | low polyreactivity
HVQLVESGGGLVQAGGSLRLSCAASGFTFDAYAMGWYRQAPGKERELVAAISFSGGSTYYADSVKGRFTISRDNAKNTVYLQMNSLKPEDTAVYYCAAYSYTRTYGRHNYWGQGTQVTVSS | high polyreactivity
HVQLVESGGGLVQAGGSLRLSCAASGITLTIYVMGGYRQAPGKERELVAAISTSGGSTYYADSVKGRFTISRDNAKNTDYLQMNSLKPEDTAVYYCNATPLRRYYGRYLMDYWGQGTQVTVSS | high polyreactivity
HVQLVESGGGLVQAGGSLRLSCAASGLTFTRYTMGWSRQAPGKERELVAAITSSGGSTYYADSVKGRFTISRDNAKNTVYLQMNSLKPEDTAVYDCAARTGYGYGARRTLKSRYDYWGQGTQVTVSS | high polyreactivity
HVQLVESGGGLVQAGGSLRLSCAASGRIFDWNAMGWYRPAPGKEWELVAAISSRSGGTYYADSVKGRFTISRDNAKNTVYFQMNSLKPEDTAVYYCAADYYWYGRFEYGYWGQGTQVTVSS | low polyreactivity
HVQLVESGGGLVQAGGSLRLSCAASGRIFGYNAMGWYRQAPGKERELVAAISYSGGSTYYADSVKGRFTISRDNAKNTVYLQMYSLKPEDTAVYYGAARGHYASLFGGYFHYNYWGQGPQVTVSS | high polyreactivity
HVQLVESGGGLVQAGGSLRLSCAASGRIFYYNAMGWYRQAPGKERELVAVITWRGGTTYYADSVKGRFTTSRDTAKNTVYLQMNSLKPEDTAVYYCAADTGAFDGYYRQPRIRFDYWGQGTQVTVSS | high polyreactivity
HVQLVESGGGLVQAGGSLRLSCAASGRTFGAYAMGWYRQAPGKERELVAAISKSGGRTYYADSVKGRFTISRDNAKNTVYLQMNSLKPEDSAVYYCNARGFRGEYDYWGQGTQVTVSS | high polyreactivity
HVQLVESGGGLVQAGGSLRLSCAASGRTFGIYAMGWYRHAPGKQRELVAAISKIGTRTYYADSVKGRFTISRDNAKNTVYLQMNSLNPEDTAVYYCAAYPVDAVYQAYRYPYYDEMDYWGQGTQVTVSS | low polyreactivity
HVQLVESGGGLVQAGGSLRLSCAASGRTFPYYAMGWYRQAPGKERELVAGITSNAGSTYYADSVKGRFTISRDNAKNTVYLLMNSLKPEDTAVYYCAKTKAGRWTTFKFGYWGQGTQVTVSS | high polyreactivity
HVQLVESGGGLVQAGGSLRLSCAASGRTFVNYTMGWYRQAPGKVRELVAAIRYRDGSTYYADSVKGRFTISRDNAKKTVYLQMNSLKPEDTAVYYCNNRITQVGDYIYDYWRQGTQVTVSS | low polyreactivity
HVQLVESGGGLVQAGGSLRLSCAASGSIFAKNAMGWYREAPGKERELVAGIDFSGGSTYYADSVKGRFTISRDNAKNTVYLQMNSLKPEDTAVYYCAADWAYKYELDYWGQGTQVTVSS | low polyreactivity

Sequence | polyreactivity (PSR sort gate)
HVQLVESGGGLVQAGGSLRLSCAASGSIFDDYAMGWYRQAPGKERELVAAISSSGTSTYYADSVKGRFTISRDNAKNTVYLQMNSLKPEDTAVYYCAARSAILKSGYLMDYWGQGTQVTVSS | low polyreactivity
HVQLVESGGGLVQAGGSLRLSCAASGSIFFVYDMGWYRQAPGKERELVAAITWSGGRTTYADSVKGRFTISRDNAKNTVYLQMNSLKPVDTAVYYCAAGRVRLRILWGKRGWYDYWGQGTQVTVSS | low polyreactivity
HVQLVESGGGLVQAGGSLRLSCAASGSIFILYAMGWSRQAPGKERELLASISSSGGRTYYADSVKGRFTISRDNAKNTVYLQMNSLKPEDTAVYYCNAVGRYWSYGTIYDYWGHGTQVTVSS | high polyreactivity
HVQLVESGGGLVQAGGSLRLSCAASGSIFVPYTMGWSRQAPGKERELVAAINSSDDSKFYADSVKGRFTISRDNAKNPVYLQMNSLKPEDTAVYYCAASYYYTIGPYFRKFDWGQGTQVTVSS | low polyreactivity
HVQLVESGGGLVQAGGSLRLSCAASGSIFVSYGMGWYRQAPGKEWELVASISNSAGSTYYADSVKGRFTISRDNAQNTVYLQMNSLKPDDTAVYSCAADYWVWAYGGYDAYNYWGQGTQVTVSS | high polyreactivity
HVQLVESGGGLVQAGGSLRLSCAASGSILDGKALGWYRQAPGKERERVAGISESDGSTNYADSVKGRFTISRDNAKNTVYLQMNSLKPEDTAVSYCAADIWTSGDIPYDYWGQGTQVTVSS | low polyreactivity
HVQLVESGGGLVQAGGSLRLSCAASGSTFSYYAMGWYRQAPGKERELVAAITSGGRTKYADSVKGRFTISRDNAKNTVYLQMNSLKPEDTAVYYCAKRIEKFSGSLAGRWYDYWGQGTQVTVSS | high polyreactivity
HVQLVESGGGLVQAGGSLRLSCAASGSTFTVNAMGWYRQAPGKERELVAAISASGGRTYYADSVKGRFTISRDNAKNTVYLQMNSLKPEDTAVYYCAARFRTWGNREAGYYWGQGTQVTVSS | high polyreactivity
HVQLVESGGGLVQAGGSLRLSCAASGSTFYNYAMGWYRQAPGNERELVAGISSGVTTNYADSVKGRYTISRDNAKNTVYLQMNSLKPEDTAVYYCAAVHSWYARYLGGEDYDYWGQGTQVTVSS | low polyreactivity
HVQLVESGGGLVQAGGSLRLSCAASGYTFWDYAMGWYRQAPGKEREFVAGISFSDGGTYYADSVKGRFTISRDNAKNTVYLQMNSLKPEDTAVYYCAATYPYSWVYSGYYYWGQGTQVTVSS | low polyreactivity
HVQLVESGGGLVQAGGSLRLSCAASVITFVPYAMGWYRQATGKERELVAAISWSGGSTYYADSVKGRFTISRDNAKNTVYLQMNSLKPEDTAVYYCAAQHDVRYDYWGQGTQVTVSS | low polyreactivity
HVQLVESGGGLVQAGGSLRLSCASSGSIFWANAMGWYRQAPGKERELVATITSGGRTYYADSVKGRFTISRDNAKNTVYLQMNSLKPEDTAVYYCARVPPQYRWGRRLVYVHVDYWGQGTQVTVSS | low polyreactivity
HVQLVESGGGLVQAGGSLRVSCAASGRTFWSYTMGWYRQAPGKERELVASITYRGGSTYYADSVKGRFTISRDNAKNTVYLQMNSQKPEDTAVYYCNARYKRYSYDYWGQGTQVTVTS | high polyreactivity
HVQLVESGGGLVQAGGSRLLSCAASGFTIYANAMGWYSQAPGKERELVAAITWRGGSTYYADSVKVRFTISRDNAKNTVYLQMNSLKPADTAVYYCNALKGRPVRSYLASPSYRYEYWGQGTQVTVSS | high polyreactivity
HVQLVESGGRLVQAGGSLRLSCAASGIIFGYYAMGWYRQAPGNERELVAAIDWTGGNTYYADSVKGRFRISRDIAKNTVYLQMNSLKPEDTAVYYCAADYYSQEDYWGQGTQVTVSS | low polyreactivity
HVQLVESGGRLVQAGGSLRLSCAASGSIFVPNAMGWYRQAPGKERELVATISWSGGSTYADCVKGRFTISRDNAKNTVYLQMKSLKPEDTAVYYCNARRYDPGSRYDYWGQGTQVTVSS | low polyreactivity
HVQPQESGGGLVQAGGSLRLSCAASGTISADYKMGWYRQAPGKEREFVAANAFGAFTNYADSVKGRFTISRDIAKNTVYLQMNSLKPEDTAVYYCAADLYYYAYDYWGQGTQVTVSS | high polyreactivity
KCQLVDSGGGLVQAGGSLRLSCAASGSIFYVKAMGWYRQAPGKEREFVADITYTGGSTYYADSVNGRFTISRDNAKNTVYLQMNSLKPEDTAVYYCAADLYTTYVAIYDYWGQGTQVTVSS | low polyreactivity
KVQLGVSGGGLVQAGGSLRLSCASSGFIFRYYAMGWSRQAPGKERELVAGISSGGSTYYADSVKGRFTISRDNAKNTVYLKMNSLKPEDTAVYYCNAVYSSGVDGSEGFDYWGQGTQVTVSS | low polyreactivity
KVQLLYSAGGLVHAGGSLRLSCAASGNIFRSYAMGWYRQAPGKERELVAAISSRGGSTYYADTVKVRFTISRDNAMNTVYLQMNSLKPEDTAVYYCNAPSTQQGPKYDYWGQGTQVTVSS | low polyreactivity
KVQLQESDGALVQAGGSLRLSCAASGSISPQYYMGWYRQAPGKEREFVAISKGTTTYYADSVKGRLTISRVNAKNTVYLQMNSLKPEDTAVYCCAAGRWLQKVPAYWDQGTQVTVSS | low polyreactivity
